{
  "source": "patent US20210198341A1",
  "about": "(published 2021)",
  "experiment_in_all_cases": "cytokine release",
  "key": {"[1]": {"target": "T1, RGS5 peptide on HLA-DRA / HLA-DRB4*01:03 (human)", "T1 peptide": "AKEIKIKLGILLQKP"}, "[2]": {"target": "T2, RGS5 peptide on HLA-DRA / HLA-DRB1*09:01 (human)", "T2 peptide": "AKEIKIKLGILLQKP"}, "[3]": {"target": "T3, RGS5 peptide on HLA-DRA / HLA-DRB1*09:01 (human)", "T3 peptide": "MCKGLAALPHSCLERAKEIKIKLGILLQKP"}, "[4]": {"target": "T4, RGS5 peptide on HLA-DRA / HLA-DRB4*01:03 (human)", "T4 peptide": "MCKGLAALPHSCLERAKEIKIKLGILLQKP"}, "[5]": {"target": "T5, HPV18-E7 peptide on HLA-DPA1*02:02 / HLA-DPB1*05:01 (human)", "T5 peptide": "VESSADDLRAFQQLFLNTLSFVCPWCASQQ"}, "[6]": {"target": "T6, HPV18-E7 peptide on HLA-DPA1*01:03 / HLA-DPB1*02:01 (human)", "T6 peptide": "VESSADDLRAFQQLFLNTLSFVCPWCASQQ"}, "[7]": {"target": "T7, HPV18-E7 peptide on HLA-DRA / HLA-DRB4*01:03 (human)", "T7 peptide": "RAFQQLFLNTLSFVCPWCA"}, "[8]": {"target": "T8, HPV18-E7 peptide on HLA-DRA / HLA-DRB1*09:01 (human)", "T8 peptide": "RAFQQLFLNTLSFVCPWCA"}},
  "data": [
    {"binder": "09D01 (TCR, V domains shown) Valpha: RKEVEQDPGPFNVPEGATVAFNCTYSNSASQSFFWYRQDCRKEPKLLMSVYSSGNEDGRFTAQLNRASQYISLLIRDSKLSDSATYLCVVNMRDSSYKLIFGSGTRLLVRP Vbeta: GAVVSQHPSRVICKSGTSVKIECRSLDFQATTMFWYRQFPKKSLMLMATSNEGSKATYEQGVEKDKFLINHASLTLSTLTVTSAHPEDSSFYICSAHERITDTQYFGPGTRLTVL", "values": [
      {"measurement": "binding result", "setting": "[1]", "result": "recognises"},
      {"measurement": "binding result", "setting": "[2]", "result": "recognises"}
    ]},
    {"binder": "09H05 (TCR, V domains shown) Valpha: RKEVEQDPGPFNVPEGATVAFNCTYSNSASQSFFWYRQDCRKEPKLLMSVYSSGNEDGRFTAQLNRASQYISLLIRDSKLSDSATYLCVVNMKDSSYKLIFGSGTRLLVRP Vbeta: GAVVSQHPSRVICKSGTSVKIECRSLDFQATTMFWYRQFPKKSLMLMATSNEGSKATYEQGVEKDKFLINHASLTLSTLTVTSAHPEDSSFYICSALEGTSGKETQYFGPGTRLLVL", "values": [
      {"measurement": "binding result", "setting": "[1]", "result": "recognises"},
      {"measurement": "binding result", "setting": "[2]", "result": "recognises"}
    ]},
    {"binder": "09E01 (TCR, V domains shown) Valpha: GQQVMQIPQYQHVQEGEDFTTYCNSSTTLSNIQWYKQRPGGHPVFLIQLVKSGEVKKQKRLTFQFGEAKKNSSLHITATQTTDVGTYFCAGPGNQFYFGTGTSLTVIP Vbeta: NAGVTQTPKFQVLKTGQSMTLQCAQDMNHEYMSWYRQDPGMGLRLIHYSVGAGITDQGEVPNGYNVSRSTTEDFPLRLLSAAPSQTSVYFCASSSWDRDQPQHFGDGTRLSIL", "values": [
      {"measurement": "binding result", "setting": "[3]", "result": "recognises"},
      {"measurement": "binding result", "setting": "[4]", "result": "recognises"}
    ]},
    {"binder": "33D05 (TCR, V domains shown) Valpha: AQSVTQLDSHVSVSEGTPVLLRCNYSSSYSPSLFWYVQHPNKGLQLLLKYTSAATLVKGINGFEAEFKKSETSFHLTKPSAHMSDAAEYFCVVSAIGYSSASKIIFGSGTRLSIRP Vbeta: DTGVSQNPRHKITKRGQNVTFRCDPISEHNRLYWYRQTLGQGPEFLTYFQNEAQLEKSRLLSDRFSAERPKGSFSTLEIQRTEQGDSAMYLCASSLVAGGPAETQYFGPGTRLLVL", "values": [
      {"measurement": "binding result", "setting": "[5]", "result": "recognises"},
      {"measurement": "binding result", "setting": "[6]", "result": "recognises"}
    ]},
    {"binder": "10F04 (TCR, V domains shown) Valpha: QKEVEQDPGPLSVPEGAIVSLNCTYSNSAFQYFMWYRQYSRKGPELLMYTYSSGNKEDGRFTAQVDKSSKYISLFIRDSQPSDSATYLCAMSPRSGYALNFGKGTSLLVTP Vbeta: DGGITQSPKYLFRKEGQNVTLSCEQNLNHDAMYWYRQDPGQGLRLIYYSQIVNDFQKGDIAEGYSVSREKKESFPLTVTSAQKNPTAFYLCASSMDAALGEKLFFGSGTQLSVL", "values": [
      {"measurement": "binding result", "setting": "[7]", "result": "recognises"},
      {"measurement": "binding result", "setting": "[8]", "result": "recognises"}
    ]}
  ]
}
